{"source": "paper PMC4863622", "target": "human Toll-like receptor 5, V5-tagged (hTLR5-V5) (human) (UniProt O60602)", "sequence (O60602 21-858)": "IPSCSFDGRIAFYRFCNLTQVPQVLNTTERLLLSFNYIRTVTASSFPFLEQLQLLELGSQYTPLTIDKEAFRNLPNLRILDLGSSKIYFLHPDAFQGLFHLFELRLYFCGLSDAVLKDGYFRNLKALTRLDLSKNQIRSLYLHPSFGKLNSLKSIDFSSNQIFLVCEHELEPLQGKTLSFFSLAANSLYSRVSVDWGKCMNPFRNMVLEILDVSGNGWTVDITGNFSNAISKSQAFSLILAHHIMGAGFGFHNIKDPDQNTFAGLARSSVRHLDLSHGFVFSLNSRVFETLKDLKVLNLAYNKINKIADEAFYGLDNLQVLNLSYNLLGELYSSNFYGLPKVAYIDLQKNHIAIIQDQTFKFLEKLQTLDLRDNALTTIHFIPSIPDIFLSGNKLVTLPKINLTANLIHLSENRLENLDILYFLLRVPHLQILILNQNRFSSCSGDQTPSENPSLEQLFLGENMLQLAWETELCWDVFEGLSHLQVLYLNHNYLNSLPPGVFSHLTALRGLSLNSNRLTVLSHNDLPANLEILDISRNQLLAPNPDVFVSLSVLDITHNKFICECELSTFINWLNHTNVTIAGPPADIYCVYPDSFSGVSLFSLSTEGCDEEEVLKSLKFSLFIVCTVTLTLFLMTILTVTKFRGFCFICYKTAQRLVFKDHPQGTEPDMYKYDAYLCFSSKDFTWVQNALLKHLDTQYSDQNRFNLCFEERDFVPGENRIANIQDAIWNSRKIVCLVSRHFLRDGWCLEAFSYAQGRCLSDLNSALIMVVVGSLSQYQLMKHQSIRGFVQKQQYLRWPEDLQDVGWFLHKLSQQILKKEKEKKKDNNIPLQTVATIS"}
{"substance": "Campylobacter jejuni FlaC, recombinant 6×His-FlaC–6×His (from UniProt P96747 1-249) (natural protein)", "values": [{"measurement": "IL-10 mRNA (quantitative RT-PCR) in hTLR5-transfected HEK293 cells, against the hTLR5 control (data not shown)", "value": 6, "unit": "fold"}]}
